Consider one protein from patent US20110239311.

The data set has as its system GST-NR2F6 fusion protein, wild-type, full-length (purified recombinant).

Sequence of GST-NR2F6 fusion protein, wild-type, full-length (purified recombinant) (chain, as listed by the source): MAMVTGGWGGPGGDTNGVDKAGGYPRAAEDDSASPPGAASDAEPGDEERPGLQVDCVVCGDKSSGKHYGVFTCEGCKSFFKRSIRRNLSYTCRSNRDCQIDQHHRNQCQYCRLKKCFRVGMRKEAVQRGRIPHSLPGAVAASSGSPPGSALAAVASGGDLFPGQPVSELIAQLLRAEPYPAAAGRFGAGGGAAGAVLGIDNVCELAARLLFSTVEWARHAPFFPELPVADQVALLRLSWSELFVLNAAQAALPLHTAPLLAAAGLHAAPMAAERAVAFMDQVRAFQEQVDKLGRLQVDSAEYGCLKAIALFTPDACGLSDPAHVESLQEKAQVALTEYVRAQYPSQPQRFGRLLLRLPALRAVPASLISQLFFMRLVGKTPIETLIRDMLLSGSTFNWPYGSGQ

B1: recombinant PKCzeta (enzyme, UniProt Q05513 1-592, looked up, species assumed)
Protein kinase C zeta type: MPSRTGPKMEGSGGRVRLKAHYGGDIFITSVDAATTFEELCEEVRDMCRLHQQHPLTLKWVDSEGDPCTVSSQMELEEAFRLARQCRDEGLIIHVFPSTPEQPGLPCPGEDKSIYRRGARRWRKLYRANGHLFQAKRFNRRAYCGQCSERIWGLARQGYRCINCKLLVHKRCHGLVPLTCRKHMDSVMPSQEPPVDDKNEDADLPSEETDGIAYISSSRKHDSIKDDSEDLKPVIDGMDGIKISQGLGLQDFDLIRVIGRGSYAKVLLVRLKKNDQIYAMKVVKKELVHDDEDIDWVQTEKHVFEQASSNPFLVGLHSCFQTTSRLFLVIEYVNGGDLMFHMQRQRKLPEEHARFYAAEICIALNFLHERGIIYRDLKLDNVLLDADGHIKLTDYGMCKEGLGPGDTTSTFCGTPNYIAPEILRGEEYGFSVDWWALGVLMFEMMAGRSPFDIITDNPDMNTEDYLFQVILEKPIRIPRFLSVKASHVLKGFLNKDPKERLGCRPQTGFSDIKSHAFFRSIDWDLLEKKQALPPFQPQITDDYGLDNFDTQFTSEPVQLTPDDEDAIKRIDQSEFEGFEYINPLLLSTEESV
Take B1: the “in vitro protein kinase assay (32P incorporation into GST-NR2F6)” value is on record as “(but not PKCzeta or PKA) were able to phosphorylate recombinant NR2F6 in vitro”.
